Experimental data from publication PMC2894451 (The Journal of Cell Biology, 2010).
Non-standard residues stand in square brackets, D forms with d. No end group written: not given here. pS = N[C@@H](COP(=O)(O)O)C(=O)O; MBP = not defined here

Target: T1, GST-CHC 331–542 fragment (UniProt Q00610 331-542)
T1 sequence: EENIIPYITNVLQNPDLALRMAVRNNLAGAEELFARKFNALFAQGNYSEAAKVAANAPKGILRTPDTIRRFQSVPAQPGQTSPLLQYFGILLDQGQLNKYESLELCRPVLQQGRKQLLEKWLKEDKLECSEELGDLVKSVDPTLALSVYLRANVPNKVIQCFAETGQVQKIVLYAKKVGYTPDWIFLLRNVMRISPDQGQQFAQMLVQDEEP
Test: pull-down

- binding result: binds
B1: MBP-TACC3 522–577, phosphorylated by aurora A (domain or fragment)
chain: {MBP}-EESFRDPAEVLGTGAEVDYLEQFGTSSFKESALRKQ[pS]LYLKFDPLLRDSPGRPVPV
modifications: reading uncertain
